Results: PMC5951847, “Substrate sequence selectivity of APOBEC3A implicates intra-DNA interactions”

Target: A3A(E72A) (Homo sapiens, UniProt P31941 1-199, E72A)
Assay: fluorescence anisotropy; pH 6.0; 50 mM MES pH 6.0, 100 mM NaCl, 0.5 mM TCEP, room temperature overnight, 10 nM TAMRA-oligo; competition with 300 nM A3A(E72A); pH series: acetate 4.0-5.0, MES 5.5-6.5, HEPES 7.0-8.0, Tris 8.5-9.0
Conditions: protein: recombinant; tags: His6-SUMO removed by Ulp1 (untagged); label: 5' TAMRA; hairpin

Sequence of A3A(E72A) (P31941 whole entry E72A): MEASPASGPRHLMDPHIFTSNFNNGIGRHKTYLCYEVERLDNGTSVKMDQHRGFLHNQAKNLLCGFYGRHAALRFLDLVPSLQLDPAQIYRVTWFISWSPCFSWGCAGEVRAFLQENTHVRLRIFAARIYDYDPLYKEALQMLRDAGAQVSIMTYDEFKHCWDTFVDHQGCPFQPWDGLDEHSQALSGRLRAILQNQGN

## GCCATCATTCGATGGG (structured_DNA) [Hairpin-TTC]
  Kd: 26 ± 2 nM
